From article PMC7431413

Molecular target: recombinant tyrosine phosphorylated STAT3 dimer (pY705 STAT3-CF) (human) (UniProt P40763)
Experiment: SEC; purified STAT3-CF co-expressed with the ABL1 kinase domain; immunoblot for pY705

stoichiometry N: 2
Substance: recombinant tyrosine phosphorylated STAT3 dimer (pY705 STAT3-CF) (from UniProt P40763 127-722) (domain or fragment)
